Two molecules from paper PMC7498065 (2020) can be followed below.

The assay addresses Complement component C5 (human, UniProt P01031). The experiment in a line: SPR. In general terms: Surface plasmon resonance follows binding to a sensor surface in real time, without labels.

Sequence of Complement component C5 (P01031 19-673, chain 1 of 2): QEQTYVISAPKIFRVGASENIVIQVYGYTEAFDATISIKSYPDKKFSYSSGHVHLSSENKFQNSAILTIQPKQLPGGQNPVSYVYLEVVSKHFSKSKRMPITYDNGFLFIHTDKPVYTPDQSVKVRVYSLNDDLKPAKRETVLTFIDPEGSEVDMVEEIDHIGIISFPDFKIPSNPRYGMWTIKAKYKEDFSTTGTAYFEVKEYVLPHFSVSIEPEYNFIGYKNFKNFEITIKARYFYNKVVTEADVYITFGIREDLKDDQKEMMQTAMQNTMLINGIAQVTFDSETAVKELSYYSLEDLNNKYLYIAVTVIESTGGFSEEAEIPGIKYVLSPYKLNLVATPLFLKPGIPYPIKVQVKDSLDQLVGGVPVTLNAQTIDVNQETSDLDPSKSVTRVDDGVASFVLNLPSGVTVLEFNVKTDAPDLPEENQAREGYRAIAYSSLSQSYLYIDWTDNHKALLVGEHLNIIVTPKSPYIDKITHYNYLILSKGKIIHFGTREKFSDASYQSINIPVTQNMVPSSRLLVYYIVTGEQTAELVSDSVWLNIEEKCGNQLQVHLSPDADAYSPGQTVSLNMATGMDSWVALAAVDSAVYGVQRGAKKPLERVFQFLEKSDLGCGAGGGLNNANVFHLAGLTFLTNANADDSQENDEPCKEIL
Sequence of Complement component C5 (P01031 678-1676, chain 2 of 2): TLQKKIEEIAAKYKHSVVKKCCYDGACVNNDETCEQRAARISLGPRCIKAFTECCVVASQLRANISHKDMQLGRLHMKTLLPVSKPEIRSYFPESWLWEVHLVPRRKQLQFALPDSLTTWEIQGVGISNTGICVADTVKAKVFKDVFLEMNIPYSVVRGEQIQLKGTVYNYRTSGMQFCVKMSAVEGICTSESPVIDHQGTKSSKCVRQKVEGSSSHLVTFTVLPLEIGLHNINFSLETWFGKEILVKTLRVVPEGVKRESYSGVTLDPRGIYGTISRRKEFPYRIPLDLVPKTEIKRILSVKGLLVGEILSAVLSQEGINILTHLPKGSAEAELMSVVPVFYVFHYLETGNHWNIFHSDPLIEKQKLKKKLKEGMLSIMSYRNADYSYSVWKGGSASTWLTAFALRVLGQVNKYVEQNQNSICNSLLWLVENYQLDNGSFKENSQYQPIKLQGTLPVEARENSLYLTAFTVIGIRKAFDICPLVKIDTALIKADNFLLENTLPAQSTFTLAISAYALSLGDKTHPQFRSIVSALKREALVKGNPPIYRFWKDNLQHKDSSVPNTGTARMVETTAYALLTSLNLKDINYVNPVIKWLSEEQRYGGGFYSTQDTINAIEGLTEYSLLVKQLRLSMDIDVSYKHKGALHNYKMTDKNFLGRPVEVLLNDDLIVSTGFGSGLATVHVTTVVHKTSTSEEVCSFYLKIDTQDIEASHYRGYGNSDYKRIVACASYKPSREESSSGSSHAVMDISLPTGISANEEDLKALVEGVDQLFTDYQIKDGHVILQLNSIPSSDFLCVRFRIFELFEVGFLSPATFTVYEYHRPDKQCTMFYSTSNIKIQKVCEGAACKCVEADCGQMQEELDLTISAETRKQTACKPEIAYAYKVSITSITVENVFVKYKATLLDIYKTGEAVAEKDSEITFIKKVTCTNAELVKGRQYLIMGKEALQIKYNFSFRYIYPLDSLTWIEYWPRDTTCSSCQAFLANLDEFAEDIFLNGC

B1: PGT121-K149 fusion protein (Fab)
chain 1: QMQLQESGPGLVKPSETLSLTCSVSGASISDSYWSWIRRSPGKGLEWIGYVHKSGDTNYSPSLKSRVNLSLDTSKNQVSLSLVAATAADSGKYYCARTLHGRRIYGSENLYFQGSCPDGFSYRSWDDFCCPMVGRCLAPRNGSENLYFQGSEWFTYFYMDVWGNGTQVTVSS
chain 2: QSVLTQPPDISVAPGETARISCGEKSLGSRAVQWYQHRAGQAPSLIIYNNQDRPSGIPERFSGSPDSPFGTTATLTITSVEAGDEADYYCHIWDSRVPTKWVFGGGTTLTVL
What is called Kd is the equilibrium constant for the complex coming apart. The low end stands for a tighter complex, the high end for a looser complex. For the molecule B1, the Kd was determined as 517 nM.

B2: PGT121-K136 fusion protein (Fab)
chain 1: QMQLQESGPGLVKPSETLSLTCSVSGASISDSYWSWIRRSPGKGLEWIGYVHKSGDTNYSPSLKSRVNLSLDTSKNQVSLSLVAATAADSGKYYCARTLHGRRIYGSENLYFQGTCPDNYREVDGCDPYDCCLTTWCTNSYCTRYIENLYFQGSEWFTYFYMDVWGNGTQVTVSS
chain 2: B1 chain 2
As for B2, the Kd is < 2.2 nM.
